The values below come from PMC7721647, “The Human RNA Helicase DDX21 Presents a Dimerization Interface Necessary for Helicase Activity” (iScience, 2020).

As a reminder, the Kd is the equilibrium constant for the complex coming apart.

This series deals with T1, DDX21ΔNC (human, UniProt Q9NR30 186-710).
T1 sequence: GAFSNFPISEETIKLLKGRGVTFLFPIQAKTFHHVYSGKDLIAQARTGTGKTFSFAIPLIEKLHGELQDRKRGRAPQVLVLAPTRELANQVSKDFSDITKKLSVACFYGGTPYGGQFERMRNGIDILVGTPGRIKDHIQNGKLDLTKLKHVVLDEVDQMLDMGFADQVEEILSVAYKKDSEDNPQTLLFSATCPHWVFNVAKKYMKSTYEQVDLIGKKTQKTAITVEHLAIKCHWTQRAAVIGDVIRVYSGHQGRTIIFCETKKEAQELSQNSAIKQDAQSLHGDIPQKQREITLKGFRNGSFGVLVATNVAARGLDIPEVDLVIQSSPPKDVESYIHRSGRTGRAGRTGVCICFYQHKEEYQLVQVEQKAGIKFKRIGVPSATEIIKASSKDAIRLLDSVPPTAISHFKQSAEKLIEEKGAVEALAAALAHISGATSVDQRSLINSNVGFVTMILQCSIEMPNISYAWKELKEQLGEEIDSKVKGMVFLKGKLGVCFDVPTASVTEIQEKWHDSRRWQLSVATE
Description: fluorescence polarization; 50 mM KCl (Table S2 prints 36.7); FP: 50 mM Tris pH 7.5, 50 mM KCl, 5 mM MgCl2, no ATP; Hill-slope fit; temperature not given in the material. Particulars: protein: recombinant; chain copies: 2; label: 5'-FAM; G4. For orientation: In fluorescence polarisation assays a small probe gives low polarisation when free and higher when bound to something large.

B1: Q2 RNA G-quadruplex (structured_RNA)
RNA: GUUGGGGCGGGCGUUGGGUUUGGGGGGACG
For the molecule B1, the Kd worked out at 36.5 ± 2.7 nM.
